The record followed here is US20250051478A1 (Y MABS THERAPEUTICS, published 2025).

Assay [1] concerns the target T1, CD38 (UniProt P28907 43-300, limits assumed).
T1 construct: also called cyclic ADP ribose hydrolase
Description: SPR; YMS9d diluted to 1 mg/ml from the 20 mg/ml solution. Background: Surface plasmon resonance follows binding to a sensor surface in real time, without labels.

The target of assay [2] is T1, CD38. Description: SPR; YMS9d diluted to 1 mg/ml from the 10 mg/ml solution.

B1: YMS9d (bispecific antibody)
chain: QVQLQESGPGLVKPSETLSLTCTVSGFSLTSYGVHWVRQPPGKGLEWIGVMWRGGSTDYNAAFKSRVTISKDNSKNQVSLKLSSVTAADTAVYYCAKSMITTGFVMDSWGQGTLVTVSSGGGGSGGGGSGGGGSGGGGSGGGGSGGGGSDIQLTQSPSSLSASVGDRVTITCKASEDIYNRLTWYQQKPGKAPKLLISGATSLETGVPSRFSGSGSGKDYTFTISSLQPEDFATYYCQQYWSNPYTFGQGTKLEIKGGGGSGGGGSGGGGSGGGGSHVQLVESGGGLVQPGGSLRLSCAASGFSLTDYGVHWVRQAPGKGLEWLGVIWSGGGTAYNTALISRFTISRDNSKNTLYLQMNSLRAEDTAVYYCARRGSYPYNYFDAWGQGTLVTVSSGGGGSGGGGSGGGGSGGGGSGGGGSGGGGSQAVVTQEPSLTVSPGGTVTLTCGSSTGAVTASNYANWVQQKPGQAPRGLIGGHNNRPPGVPARFSGSLLGGKAALTLLGAQPEDEAEYYCALWYSDHWVIGGGTKLTVLGTPLGDTTHTSGKPLDGEYFTLQIRGRERFEMFRELNEALELKDAQAGKEPGGSGGAP
modifications: Self-assembles into tetramers through the p53 SADA domain; labelled with 125I in Example 8.
notes: also called CD38-SADA construct without disulfide bonds; CD38-SADA
What is called Kd is the free concentration of one partner at which half of the binding sites on the other are occupied at equilibrium, for simple one-to-one binding. Low readings indicate higher affinity, high ones lower affinity. One may read the koff as a measure of how fast the partners let go of each other. Higher therefore signals a short-lived complex. As a reminder, the kon is a measure of how fast the partners come together. A lower kon goes with slow association. As for B1, in assay [1], binding was characterised by a dissociation constant (Kd) of 8.1 nM, the koff was found to be 0.0011 s⁻¹ and the kon turned out to be 130000 M⁻¹ s⁻¹. Besides, in assay [2], the affinity, expressed as Kd, was 7.5 nM; the koff turned out to be 0.0011 s⁻¹; the kon is 140000 M⁻¹ s⁻¹.
